For assay [1], the target named is T1, SOCS2-Elo B/C + F3 (human, UniProt O14508 32-198; Q15370 1-118; Q15369 17-112). The experiment in a line: ITC. (Isothermal titration calorimetry measures the heat released or taken up as one component is titrated into another.)
Assay [2] concerns the target T1, SOCS2-Elo B/C + F3. The experiment in a line: ITC. This is another data set of the same source.
For another assay, the target named is F3 peptide. The experiment in a line: NMR titration.

From article PMC8640019 (Nature Communications, 2021) come the findings set out here.

Values joined by “and” are separate entries in the source; they are usually repeats but may differ in a detail not shown here. Identical values can stand only once. Square brackets hold non-standard residues; d marks the D form. Ends that are not written are not given here. pY = N[C@@H](Cc1ccc(OP(=O)(O)O)cc1)C(=O)O

T1 sequence (Q15370 whole entry, chain 2 of 2): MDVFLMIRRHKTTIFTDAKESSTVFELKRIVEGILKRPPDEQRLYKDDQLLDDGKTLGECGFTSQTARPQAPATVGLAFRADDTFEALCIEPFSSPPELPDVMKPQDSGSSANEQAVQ
T1 sequence (Q15369 17-112, chain 3 of 2): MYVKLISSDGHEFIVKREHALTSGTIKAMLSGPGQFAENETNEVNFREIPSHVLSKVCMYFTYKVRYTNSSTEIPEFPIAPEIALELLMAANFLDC

B1: gp130 pY757 peptide (peptide)
chain: STASTVQ[pY]STVVHSG
As to B1, in the assay with SOCS2-Elo B/C + F3 [1], the “stoichiometry N” value is 0.738 and 0.632.

B2: Cullin5 N-terminal domain (Cul5^1-384) (domain or fragment)
chain: MATSNLLKNKGSLQFEDKWDFMRPIVLKLLRQESVTKQQWFDLFSDVHAVCLWDDKGPAKIHQALKEDILEFIKQAQARVLSHQDDTALLKAYIVEWRKFFTQCDILPKPFCQLEITLMGKQGSNKKSNVEDSIVRKLMLDTWNESIFSNIKNRLQDSAMKLVHAERLGEAFDSQLVIGVRESYVNLCSNPEDKLQIYRDNFEKAYLDSTERFYRTQAPSYLQQNGVQNYMKYADAKLKEEEKRALRYLETRRECNSVEALMECCVNALVTSFKETILAECQGMIKRNETEKLHLMFSLMDKVPNGIEPMLKDLEEHIISAGLADMVAAAETITTDSEKYVEQLLTLFNRFSKLVKEAFQDDPRFLTARDKAYKAVVNDATIFK
In the case of B2, the “stoichiometry N” value with SOCS2-Elo B/C + F3 [1] came to 0.81. Moreover, in the assay with SOCS2-Elo B/C + F3 [2], the Kd amounted to 41 nM.

B3: SOCS2-SH2^32–159 (domain or fragment, human, UniProt O14508 32-159, looked up)
chain: QAARLAKALRELGQTGWYWGSMTVNEAKEKLKEAPEGTFLIRDSSHSDYLLTISVKTSAGPTNLRIEYQDGKFRLDSIICVKSKLKQFDSVVHLIDYYVQMCKDKRTGPEAPRNGTVHLYLTKPLYTS
Take B3: the binding result with F3 peptide is “binds”.

Broadly, the stoichiometry N is a count of units in the complex or per binding partner. By Kd is commonly meant a measure of binding affinity in units of concentration.
